In article PMC10705379 (bioRxiv, 2023):
Residue numbers refer to the chain shown, from its start. Numbers in names are those of the source.

T1: MBP-Epe1 (S. pombe, UniProt O94603 1-948)
T1 sequence: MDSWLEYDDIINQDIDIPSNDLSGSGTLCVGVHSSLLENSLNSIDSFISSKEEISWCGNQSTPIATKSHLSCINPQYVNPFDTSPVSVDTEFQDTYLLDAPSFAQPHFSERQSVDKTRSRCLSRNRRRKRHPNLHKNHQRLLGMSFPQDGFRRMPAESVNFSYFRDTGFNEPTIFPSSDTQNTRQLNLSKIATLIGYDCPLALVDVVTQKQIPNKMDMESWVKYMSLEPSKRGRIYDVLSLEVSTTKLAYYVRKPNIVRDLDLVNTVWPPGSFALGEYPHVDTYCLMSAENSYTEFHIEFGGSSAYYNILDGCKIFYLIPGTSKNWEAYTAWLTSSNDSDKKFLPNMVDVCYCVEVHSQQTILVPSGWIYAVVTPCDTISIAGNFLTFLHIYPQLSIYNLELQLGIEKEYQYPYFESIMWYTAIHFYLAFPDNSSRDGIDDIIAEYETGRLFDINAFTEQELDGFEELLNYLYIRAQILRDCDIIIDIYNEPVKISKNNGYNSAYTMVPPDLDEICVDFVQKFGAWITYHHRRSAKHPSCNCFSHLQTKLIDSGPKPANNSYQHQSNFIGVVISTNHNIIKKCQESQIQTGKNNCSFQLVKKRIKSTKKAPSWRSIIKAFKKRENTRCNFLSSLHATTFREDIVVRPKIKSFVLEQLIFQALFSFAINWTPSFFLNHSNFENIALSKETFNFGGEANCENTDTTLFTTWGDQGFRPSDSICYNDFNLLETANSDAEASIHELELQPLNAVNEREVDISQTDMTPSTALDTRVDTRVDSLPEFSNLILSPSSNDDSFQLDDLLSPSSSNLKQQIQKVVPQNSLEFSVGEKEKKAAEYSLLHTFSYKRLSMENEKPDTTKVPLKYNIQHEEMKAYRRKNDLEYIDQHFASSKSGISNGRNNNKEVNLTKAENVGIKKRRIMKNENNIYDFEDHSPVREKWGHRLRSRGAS

B1: Swi6-WT (recombinant, full length) (natural protein)
chain: MKKGGVRSYRRSSTSKRSVIDDDSEPELPSMTKEAIASHKADSGSSDNEVESDHESKSSSKKLKENAKEEEGGEEEEEDEYVVEKVLKHRMARKGGGYEYLLKWEGYDDPSDNTWSSEADCSGCKQLIEAYWNEHGGRPEPSKRKRTARPKKPEAKEPSPKSRKTDEDKHDKDSNEKIEDVNEKTIKFADKSQEEFNENGPPSGQPNGHIESDNESKSPSQKESNESEDIQIAETPSNVTPKKKPSPEVPKLPDNRELTVKQVENYDSWEDLVSSIDTIERKDDGTLEIYLTWKNGAISHHPSTITNKKCPQKMLQFYESHLTFRENE
B2: Swi6-T278Y (recombinant, full length) (natural protein)
chain: B1 chain with T278Y
B3: FLAG-Swi6-WT (recombinant) (natural protein)
chain: B1 chain
B4: Swi6-T278K (recombinant, full length) (natural protein)
chain: B1 chain with T278K

Key:
H3K9me3 mononucleosomes = assay: native gel or EMSA
[1] = tested on: Swi6-WT (Schizosaccharomyces pombe); assay: EMSA; details: histone H3K9me3
mass photometry = target: the molecule itself; assay: mass photometry
MBP-Epe1 = target: T1, MBP-Epe1; assay: pull-down

| Molecule | Kd (H3K9me3 mononucleosomes) [nM] | specificity for H3K9me3 over H3K9me0 mononucleosomes (H3K9me3 mononucleosomes) [fold] | Kd (mass photometry) [nM] | stoichiometry N (mass photometry) | further results |
| --- | --- | --- | --- | --- | --- |
| Swi6-T278Y (recombinant, full length) (from UniProt P40381 1-328) (natural protein) | 39 | 2.3 |  |  |  |
| H3K9me3 mononucleosome (Epicypher 16-0315-20) |  |  |  |  | Kd [1]: 50 nM |
| B1 | 50 | 2.4 | 0.38 | 2 |  |
| B2 |  |  | 0.27 | 2 |  |
| B3 |  |  |  |  | binding result (MBP-Epe1): binds |
| B4 |  |  | 0.2 | 2 |  |
